Laboratory results published in patent US20160024208A1.

B1: H4H382B (antibody, V domains shown)
VH: EVQLVQSGGGVVQPGRSLRLSCEASGFTFSSYGMHWVRQAPGKGLEWVAVISYDGSNKHYTDSVKGRFTISRDNSKNTLYLQMNSLRAEDTAVYFCAQSRGYSYGLGYWGQGTLVTVSS
VL: DIQMTQSPDSLAVSLGERATINCKSSQSVLSSSNNENYLVWYQQKPGQPPKLLIYWASTREPGVPDRFSGGGSGTDFTLTISSLQAEDVAVYYCQQYHSIPYTFGQGTKVEIKR
B2: H4H443B (antibody, V domains shown)
VH: QVQLVESGGGLVQPGRSLRLSCAASGFTFDDYAMHWVRQVPGKGLEWVSGINWNSGSIGYADSVKGRFTISRDNAKNSLFLQMNSLRAEDTALYYCAKDIEYYDILTGYYSYYIMDVWGQGTTVTVSS
VL: DIQMTQSPSFLSASVGDRVTITCWASQGISSYLAWYQQKPGKAPKLLIYASSTLQSGVPSRFSGSGSGTEFTLTISSLQPEDFATYYCQQFNSYPPTFGQGTKVEIKR
B3: H4H471B (antibody, V domains shown)
VH: EVQLVESGGGLVKPGGSLRLSCAASGVTFSDYYMTWIRQAPGKGLEWVSYISTDGRTIYYADSVKGRFTISRDNAKNSLYLQMNNLRAEDTAVYYCARGVDSDDYEDFYSYYDMDVWGQGTTVTVSS
VL: DIQMTQSPSSLSASVGDRVTITCRASQGISNYLAWFQQKPGKAPKSLIYAASSLQGGVPSRFSGSGSGTDFTLTISSLQPEDFATYYCQQYNSYPLTFGGGTKVEIKR
B4: H4H441B (antibody, V domains shown)
VH: QVQLQQWGAGLLKPSETLSLTCAVYGGSFSGHYWTWIRQPPGKGLEWIGEINHRGNTNYNPSLKSRATISVDTSKNQFSLKLSSVTAADTAVYYCAREGSLAARLWFFDLWGRDTPVTVSS
VL: DIQMTQSPSSLSASVGDRGTVTCRASQNIRTYLNWYQQKPGKAPKLLIYAASSLQSGVPSRFSGSGSGTDFTLTISSLQPEDFATYYCQQSYGTPYTFGQGTKVEIKR
B5: H4H448B (antibody, V domains shown)
VH: EVQLVQSGGGLVQPGRSLRLSCAASGFTFDDYAMHWVRQAPGKGLEWVSGISWNSGSIGYADSVKGRFTISRDNAKNSLYLQMNSLRAEDTALYYCAKDIEYYDILTGYYSYYIMDVWGQGTTVTVSS
VL: DIRMTQSPSSLSASVGDRGTITCRASQNINSYLNWYQLKPGKAPKLLIFAASSLQSGVPSRFSGSGSGTDFTLTISSLQPEDFATYYCQQSYSSPFTFGQGTKVEIKR

Experiments:
[1] = target: full-length human Nav1.7 fused at its N-terminus to GFP, expressed in HEK293 cells (human) (UniProt Q15858); assay: cell-based or functional assay
[2] = target: full-length human Nav1.7 fused at its N-terminus to GFP, expressed in HEK293 cells (human) (UniProt Q15858); assay: flow cytometry; % stained hNav1.7-GFP-HEK293 minus parental HEK293
[3] = target: full-length human Nav1.7 fused at its N-terminus to GFP, expressed in HEK293 cells (human) (UniProt Q15858); assay: flow cytometry on Nav1.7-GFP-HEK293, antibody 3.3 nM preincubated with 3.3 uM EC 3-1 peptide as competitor
[4] = target: full-length human Nav1.7 fused at its N-terminus to GFP, expressed in HEK293 cells (human) (UniProt Q15858); assay: flow cytometry on Nav1.7-GFP-HEK293, antibody 3.3 nM
[5] = target: N-term Biotin Nav1.7 (3-3) peptide, mouse (mouse); assay: ELISA on coated peptide

| Binder | Current blocking (Average % inhibition), IonWorks Quattro, 223 nM antibody [1] | % Binding Nav1.7 [2] | % Binding Nav1.7 + 1000x Peptide (Competition Binding) [3] | % Binding Nav1.7 (Stable Line) [4] | OD450 [5] |
| --- | --- | --- | --- | --- | --- |
| B1 | -6% | 13% | – | – | – |
| B2 | – | 10.1% | 5.1% | 10.1% | – |
| B3 | – | – | – | – | < 0.2 od |
| B4 | 81% | – | – | – | – |
| B5 | – | 9.2% | 5.8% | 9.2% | – |
